This note sets out measurements from patent publication US20150231240A1, “ANTI-C16ORF54 ANTIBODIES AND METHODS OF USE THEREOF” (priority 2012, published 2015).

Assay [1] has as its target T1, cynomolgus monkey C16orf54 (cynomolgus monkey (Macaca fascicularis), UniProt Q6UWD8 1-224 (human entry)).
T1 construct: also called cyno C16orf54; cyno-C16orf54
T1 chain: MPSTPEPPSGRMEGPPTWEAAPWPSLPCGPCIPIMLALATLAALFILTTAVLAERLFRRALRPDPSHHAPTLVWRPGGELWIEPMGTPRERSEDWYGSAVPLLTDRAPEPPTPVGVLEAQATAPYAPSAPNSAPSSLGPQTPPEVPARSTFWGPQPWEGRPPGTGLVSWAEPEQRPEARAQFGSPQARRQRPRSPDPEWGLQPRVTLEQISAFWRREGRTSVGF
The assay can be described thus: flow cytometry, 10 ug/ml antibody, F279-cyno-C16orf54 cells. The method in brief:
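Sarcoma cells transfected with human or cyno C16orf54 were Fc-blocked, stained with antibody for 1 h at 4° C., then PE anti-mouse IgG Fcγ secondary 30 min at 4° C., with TO-PRO-3 viability dye. Value is live-cell PE median fluorescence divided by that of IgG isotype control.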
(In general: A flow cytometer gives signals particle by particle.)

In assay [2] the target is T2, human C16orf54 (human, UniProt Q6UWD8 1-224).
T2 construct: also called huC16orf54; hC16orf54
T2 sequence: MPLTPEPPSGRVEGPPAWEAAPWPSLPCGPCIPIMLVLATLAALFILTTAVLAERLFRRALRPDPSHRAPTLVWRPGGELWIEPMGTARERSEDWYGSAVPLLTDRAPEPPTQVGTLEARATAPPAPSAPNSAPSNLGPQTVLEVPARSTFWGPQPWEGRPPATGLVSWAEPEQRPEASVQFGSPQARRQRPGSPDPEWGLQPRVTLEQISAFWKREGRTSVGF
The assay can be described thus: flow cytometry, REH leukemia cells (endogenous C16orf54), 3 repeats.

The target of assay [3] is T2, human C16orf54. Kind of assay: flow cytometry, KG-1 leukemia cells (endogenous C16orf54), 6 repeats.
Assay [4] concerns the target T2, human C16orf54. The assay can be described thus: flow cytometry, Granta-519 lymphoma cells (endogenous C16orf54), 1 repeat.
The target of assay [5] is T2, human C16orf54. Kind of assay: flow cytometry, HEL92.1.7 leukemia cells (endogenous C16orf54), 3 repeats.
The target in assay [6] is T2, human C16orf54. The assay can be described thus: flow cytometry, BxPC-3 pancreatic cancer cells (endogenous C16orf54), 3 repeats.
Assay [7] has as its target T3, N-terminal 32 amino acids of huC16orf54 coupled to biotin (human, biotin at the C-terminus).
T3 construct: also called 32 amino acid N-terminal extracellular domain
T3 peptide: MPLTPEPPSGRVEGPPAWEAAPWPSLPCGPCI
The assay can be described thus: biolayer interferometry (OctetQK384), purified antibody on streptavidin sensors coated with the biotinylated peptide. The procedure:
Affinity measurements of purified anti-huC16orf54 antibodies were carried out on the OctetQK384® sytem (ForteBio). After coating streptavidin sensors with the N-terminal 32 amino acids of huC16orf54 coupled to biotin at the C-terminus, association and dissociation of purified anti-huC16orf54 antibodies was monitored. KD values were derived using ForteBio's software.
(In BLI a coated tip is dipped into the sample, and binding shifts an interference pattern.)

The target of assay [8] is T3, N-terminal 32 amino acids of huC16orf54 …. Kind of assay: biolayer interferometry (OctetQK384), hybridoma supernatant on streptavidin sensors coated with the biotinylated peptide. The procedure: Eight anti-huC16orf54 monoclonal antibodies were further screened for binding and subsequent off-rate analysis using the OctetQK384® sytem (ForteBio). Hybridoma supernatants were screened for association to and dissocation from streptavidin sensors coated with the N-terminal 32 amino acids of huC16orf54 coupled to biotin, and the calculated offrates (kdis) are shown in Table 31. Cloned hybridomas with […] off-rates were carried forward for antibody purification.

Assay [9] addresses T2, human C16orf54. Kind of assay: cell ELISA on huC16orf54-expressing sarcoma cells, purified antibody in 1:4 eight-point dilution from 200 nM, 2 h at 4 C, anti-mouse IgG Fc HRP luminescence. The procedure: Purified anti-huC16orf54 monoclonal antibodies were also tested for binding by ELISA. huC16orf54-expressing sarcoma cells were incubated with an 1:4 eight-point dilution series starting with 200 nM of anti-huC16orf54 antibody for 2 hours at 4° C. After washing, the cells were incubated with a secondary antibody (Jackson Immunologicals Goat×IgG, Fc specific HRP—Product#115-035-071) and detected with SuperSignal® ELISA Pico Chemiluminescent substrate (Thermo Scientific—Product#37069). EC50 values were determined using Graphpad Prism® software. An isotype control, R22-4-26A, is also shown.

In assay [10] the target is T4, C16orf54 on cell lines and primary samples (Homo sapiens, UniProt Q6UWD8).
T4 sequence (Q6UWD8 1-224): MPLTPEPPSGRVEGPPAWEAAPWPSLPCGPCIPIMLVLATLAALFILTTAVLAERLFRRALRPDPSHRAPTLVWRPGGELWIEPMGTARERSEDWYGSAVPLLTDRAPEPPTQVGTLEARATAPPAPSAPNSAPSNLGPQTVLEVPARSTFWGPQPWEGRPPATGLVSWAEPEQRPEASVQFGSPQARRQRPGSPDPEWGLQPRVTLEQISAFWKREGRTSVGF
Kind of assay: C16orf54 copy number enumeration by flow cytometry with AlexaFluor647 conjugated antibody. It is filed as binding. The procedure:
In some assays, human cell lines and primary samples were immunofluorescently stained using an anti-C16orf54 monoclonal antibody R29-7-1C that was conjugated to AlexaFluor647, and copy number of C16orf54 was determined by interpolation on a calibration curve generated by Quantum™ Simply Cellular® bead standards (Bangs Laboratories, Inc.) Copy number results are shown in Table 39 various cell lines and primary samples expressing C16orf54. […]

B1: R29-7-1C (antibody, V domains shown)
VH: DVQLQESGPGLVKPSQSLSLTCTVTGYSITSDYAWNWIRQFPGNKLEWMGYISYSGSIRYNPSLKSRISITRDTSKNQFFLQLNSVTTEDTATYYCAREKYDNYYYAMDYWGQGTSVTVSS
VL: DIVMSQSPSSLAVSVGEKVTLSCKSSQNLLYSTNQKNYLAWYQQKPGQSPKLLIYWASTRESGVPDRFTGSGSGTDFTLTISSVKAEDLAVYYCQQYYSYRTFGGGTKLEIK
notes: Murine monoclonal IgG2a from a hybridoma
In general, Kd refers to the equilibrium constant for the complex coming apart. As a reminder, the koff is a measure of how fast the partners let go of each other. The term kon denotes the rate constant with which the complex forms. For orientation: EC50 (read off the curve) means the concentration needed to bring the measured effect to its halfway point. With B1, the “Median fold change relative to IgG control” value in [1] is 53.7 fold. Further, the “Average MFI fold change relative to isotype control” value with human C16orf54 [2] turned out to be 6.4 fold; with human C16orf54 [3] it was 16.9 fold; with human C16orf54 [4], 3.8 fold; with human C16orf54 [5], 5 fold; in the assay with human C16orf54 [6] it was 7 fold. Further, the Kd in [7] was found to be 1.1 nM. Besides, the figures for the koff in assay [7] and in [8] were 7.95e-05 s⁻¹ and 0.0102 s⁻¹, respectively. Also, the kon in assay [7] is 68100 M⁻¹ s⁻¹. Besides, the “EC50 (read off the curve)” value with human C16orf54 [9] is about 0.07 nM.

B2: R29-7-1C: murine anti-C16orf54 monoclonal antibody, IgG2a; VH SEQ ID NO: 8, VL SEQ ID NO: 10 (antibody, V domains shown)
VH: MRVLILLWLFTAFPGILSDVQLQESGPGLVKPSQSLSLTCTVTGYSITSDYAWNWIRQFPGNKLEWMGYISYSGSIRYNPSLKSRISITRDTSKNQFFLQLNSVTTEDTATYYCAREKYDNYYYAMDYWGQGTSVTVSS
VL: MDSQAQVLMLLLLWVSGTCGDIVMSQSPSSLAVSVGEKVTLSCKSSQNLLYSTNQKNYLAWYQQKPGQSPKLLIYWASTRESGVPDRFTGSGSGTDFTLTISSVKAEDLAVYYCQQYYSYRTFGGGTKLEIK
modifications: R29-7-1C heavy chain variable region; R29-7-1C light chain variable region
Regarding B2, the “Bang's analysis Average copy #” value was 19,975 (1) in assay [10] (Human cell line KG1/lymphoblast); 29,971 (10) in [10] (Human cell line KG1/myeloblast); 11,198 (1) in [10] (Human cell line KG1A); 5,517 (3) in [10] (Human cell line WSU-DLCL2); 4,221 (3) in assay [10] (Human cell line WSU-FSCCL); 3,979 (1) in [10] (Primary Sample CLL 1). Moreover, the “Bang's analysis Average copy #” value is 10,515 (1) in [10] (Primary Sample CLL 2); 12,277 (1) in [10] (Primary Sample CLL 3); 11,240 (1) in [10] (Primary Sample CLL 4); 10,630 (1) in assay [10] (Primary Sample Lymphoma 1); 34,397 (1) in [10] (Primary Sample Lymphoma 2); 5,798 (1) in assay [10] (Primary Sample MM 1). In assay [10] (Primary Sample MM 2), the “Bang's analysis Average copy #” value was 7,590 (1).
